According to patent US7994123B2, “Hybrid proteins with ErbB4 extracellular domain and neuregulin heparin-binding domain for targeting” (Wayne State University, priority 2004, dated 2011):
“And” between values parts separate entries of the source, which are not always exact repeats. Equal entries are not always repeated.

B1: B4-HBD-HA: fusion polypeptide: erbB4 extracellular domain with NRG heparin-binding domain C-terminal, HA tag (protein)
chain: VCAGTENKLSSLSDLEQQYRALRKYYENCEVVMGNLEITSIEHNRDLSFLRSVREVTGYVLVALNQFRYLPLENLRIIRGTKLYEDRYALAIFLNYRKDGNFGLQELGLKNLTEILNGGVYVDQNKFLCYADTIHWQDIVRNPWPSNLTLVSTNGSSGCGRCHKSCTGRCWGPTENHCQTLTRTVCAEQCDGRCYGPYVSDCCHRECAGGCSGPKDTDCFACMNFNDSGACVTQCPQTFVYNPTTFQLEHNFNAKYTYGAFCVKKCPHNFVVDSSSCVRACPSSKMEVEENGIKMCKPCTDICPKACDGIGTGSLMSAQTVDSSNIDKFINCTKINGNLIFLVTGIHGDPYNAIEAIDPEKLNVFRTVREITGFLNIQSWPPNMTDFSVFSNLVTIGGRVLYSGLSLLILKQQGITSLQFQSLKEISAGNIYITDNSNLCYYHTINWTTLFSTINQRIVIRDNRKAENCTAEGMVCNHLCSSDGCWGPGPDQCLSCRRFSRGRICIESCNLYDGEFREFENGSICVECDPQCEKMEDGLLTCHGPGPDNCTKCSHFKDGPNCVEKCPDGLQGANSFIFKYADPDRECHPCHPNCTQGCNGPTSHDCIYYPWTGHSTLPQHAKNSAAGSQSPALPPRLKEMKSQESAAGSKLVLRCETSSEYSSLRFKWFKNGNELNRKNKPQNIKIQKKPGKSELRINKASLADSGEYMCKVISKLGNDSASANITIVE
modifications: left off: small tags and cut ends
B2: HBD-S-B4-HA: fusion polypeptide: NRG heparin-binding domain, glycosylated spacer, erbB4 extracellular domain, C-terminal HA tag (protein)
chain: QSGYKKKERGSGKKPESAAGSQSPALPPRLKEMKSQESAAGSKLVLRCETSSEYSSLRFKWFKPNGNELNRKNKQNIKIQKKPGKSELRINKASLADSGEYMCKVISKLGNDSASANITIVESNEIITGMPASTEGAYVSSESPIRISVSTEGANTSSSTSTSTTGTSGTQSVCAGTENKLSSLSDLEQQYRALRKYYENCEVVMGNLEITSIEHNRDLSFLRSVREVTGYVLVALNQFRYLPLENLRIIRGTKLYEDRYALAIFLNYRKDGNFGLQELGLKNLTEILNGGVYVDQNKFLCYADTIHWQDIVRNPWPSNLTLVSTNGSSGCGRCHKSCTGRCWGPTENHCQTLTRTVCAEQCDGRCYGPYVSDCCHRECAGGCSGPKDTDCFACMNFNDSGACVTQCPQTFVYNPTTFQLEHNFNAKYTYGAFCVKKCPHNFVVDSSSCVRACPSSKMEVEENGIKMCKPCTDICPKACDGIGTGSLMSAQTVDSSNIDKFINCTKINGNLIFLVTGIHGDPYNAIEAIDPEKLNVFRTVREITGFLNIQSWPPNMTDFSVFSNLVTIGGRVLYSGLSLLILKQQGITSLQFQSLKEISAGNIYITDNSNLCYYHTINWTTLFSTINQRIVIRDNRKAENCTAEGMVCNHLCSSDGCWGPGPDQCLSCRRFSRGRICIESCNLYDGEFREFENGSICVECDPQCEKMEDGLLTCHGPGPDNCTKCSHFKDGPNCVEKCPDGLQGANSFIFKYADPDRECHPCHPNCTQGCNGPTSHDCIYYPWTGHSTLPQHAKN
modifications: left off: small tags and cut ends
B3: B4-HA: extracellular domain of erbB4 expressed alone without the HBD, HA tag (control) (protein)
chain: VCAGTENKLSSLSDLEQQYRALRKYYENCEVVMGNLEITSIEHNRDLSFLRSVREVTGYVLVALNQFRYLPLENLRIIRGTKLYEDRYALAIFLNYRKDGNFGLQELGLKNLTEILNGGVYVDQNKFLCYADTIHWQDIVRNPWPSNLTLVSTNGSSGCGRCHKSCTGRCWGPTENHCQTLTRTVCAEQCDGRCYGPYVSDCCHRECAGGCSGPKDTDCFACMNFNDSGACVTQCPQTFVYNPTTFQLEHNFNAKYTYGAFCVKKCPHNFVVDSSSCVRACPSSKMEVEENGIKMCKPCTDICPKACDGIGTGSLMSAQTVDSSNIDKFINCTKINGNLIFLVTGIHGDPYNAIEAIDPEKLNVFRTVREITGFLNIQSWPPNMTDFSVFSNLVTIGGRVLYSGLSLLILKQQGITSLQFQSLKEISAGNIYITDNSNLCYYHTINWTTLFSTINQRIVIRDNRKAENCTAEGMVCNHLCSSDGCWGPGPDQCLSCRRFSRGRICIESCNLYDGEFREFENGSICVECDPQCEKMEDGLLTCHGPGPDNCTKCSHFKDGPNCVEKCPDGLQGANSFIFKYADPDRECHPCHPNCTQGCNGPTSHDCIYYPWTGHSTLPQHAKN
modifications: left off: small tags and cut ends
B4: B4: purified His-tagged erbB4 extracellular domain lacking the HBD (protein)
chain: VCAGTENKLSSLSDLEQQYRALRKYYENCEVVMGNLEITSIEHNRDLSFLRSVREVTGYVLVALNQFRYLPLENLRIIRGTKLYEDRYALAIFLNYRKDGNFGLQELGLKNLTEILNGGVYVDQNKFLCYADTIHWQDIVRNPWPSNLTLVSTNGSSGCGRCHKSCTGRCWGPTENHCQTLTRTVCAEQCDGRCYGPYVSDCCHRECAGGCSGPKDTDCFACMNFNDSGACVTQCPQTFVYNPTTFQLEHNFNAKYTYGAFCVKKCPHNFVVDSSSCVRACPSSKMEVEENGIKMCKPCTDICPKACDGIGTGSLMSAQTVDSSNIDKFINCTKINGNLIFLVTGIHGDPYNAIEAIDPEKLNVFRTVREITGFLNIQSWPPNMTDFSVFSNLVTIGGRVLYSGLSLLILKQQGITSLQFQSLKEISAGNIYITDNSNLCYYHTINWTTLFSTINQRIVIRDNRKAENCTAEGMVCNHLCSSDGCWGPGPDQCLSCRRFSRGRICIESCNLYDGEFREFENGSICVECDPQCEKMEDGLLTCHGPGPDNCTKCSHFKDGPNCVEKCPDGLQGANSFIFKYADPDRECHPCHPNCTQGCNGPTSHDCIYYPWTGHSTLPQHAKN
modifications: left off: small tags and cut ends
notes: purified His-tagged erbB4 extracellular domain lacking the HBD
B5: HBD-B4-HA: fusion polypeptide: NRG heparin-binding domain N-terminal to erbB4 extracellular domain, no spacer, HA tag (protein)
chain: SAAGSQSPALPPRLKEMKSQESAAGSKLVLRCETSSEYSSLRFKWFKNGNELNRKNKPQNIKIQKKPGKSELRINKASLADSGEYMCKVISKLGNDSASANITIVEVCAGTENKLSSLSDLEQQYRALRKYYENCEVVMGNLEITSIEHNRDLSFLRSVREVTGYVLVALNQFRYLPLENLRIIRGTKLYEDRYALAIFLNYRKDGNFGLQELGLKNLTEILNGGVYVDQNKFLCYADTIHWQDIVRNPWPSNLTLVSTNGSSGCGRCHKSCTGRCWGPTENHCQTLTRTVCAEQCDGRCYGPYVSDCCHRECAGGCSGPKDTDCFACMNFNDSGACVTQCPQTFVYNPTTFQLEHNFNAKYTYGAFCVKKCPHNFVVDSSSCVRACPSSKMEVEENGIKMCKPCTDICPKACDGIGTGSLMSAQTVDSSNIDKFINCTKINGNLIFLVTGIHGDPYNAIEAIDPEKLNVFRTVREITGFLNIQSWPPNMTDFSVFSNLVTIGGRVLYSGLSLLILKQQGITSLQFQSLKEISAGNIYITDNSNLCYYHTINWTTLFSTINQRIVIRDNRKAENCTAEGMVCNHLCSSDGCWGPGPDQCLSCRRFSRGRICIESCNLYDGEFREFENGSICVECDPQCEKMEDGLLTCHGPGPDNCTKCSHFKDGPNCVEKCPDGLQGANSFIFKYADPDRECHPCHPNCTQGCNGPTSHDCIYYPWTGHSTLPQHAKN
modifications: left off: small tags and cut ends

What was measured:
[1] = tested on: erbB receptor phosphorylation (p185) in L6 cells; test: L6 assay: block of NRG-induced erbB receptor phosphorylation (p185); type: cell-based; details: for effect on NRG-induced p185 erbB receptor phosphorylation: comparable amounts of antagonist with 50 pM NRG (IG-EGF form), 45 min
Experimental: (§1) 4. Cell culture: The L6 cells were cultured in DMEM supplemented with 10% fetal calf serum, 1 mM L-glutamine and 1000 U/ml penicillin/streptomycin at 37° C. in 10% CO2 incubator. The HEK293 cells were cultured in DMEM with 10% fetal calf serum, 1 mM L-glutamine, 2 mM sodium pyruvate, 0.1 mM non-essential amino acids, 1000 U/ml penicillin/streptomycin at 37° C. in 10% CO2 incubator. The selective antibiotics Geneticin 200 μg/ml (Gibco-Invitrogen) was added to the cell cultures of stably transfected HEK293 cells harboring the NRG antagonists. 5. Stable expression of NRG antagonists in HEK293 cells: HEK293 cells were cultured in […] flasks to 80% confluence and transfected with the four NRG antagonist constructs using lipofectamine 2000 (Invitrogen Life Science) as instructed. The antibiotic Geneticin was then added at a concentration of 400 μg/ml to the transfected HEK293 cells to select the positive antagonist transfected cells. After three weeks of Geneticin selection, the transfected HEK293 cells were diluted and plated in 96 well plates to yield single positive clones. The single clones that expressed the highest levels of antagonists (confirmed by western blot using HA antibody) were then maintained in culture media with 200 μg/ml Geneticin. Optimem I (Gibco-Invitrogen) was applied to the stably transfected NRG antagonist cell lines at 37° C. in 10% CO2 incubator for 2 days. The conditioned Optimem I media was then used in the following experiments. 6. Heparin column binding: The conditioned media containing the four NRG antagonists was passed through the heparin column to allow binding to heparin. The excessive unbound antagonist proteins were washed off by 1×PBS twice. The antagonist proteins were then eluted by increasing concentration of NaCl (0.25, 0.3, 0.4, 0.5, 0.6 and 1M). The flow through solution from each step was examined by anti-HA western blots, as described later, to determine heparin binding ability of the antagonists. 7. Purification and quantitation of recombinant proteins: The NRG antagonists were purified by anti-HA affinity matrix (3F10) (rat mAb) according to manufacturer's instructions. Briefly, the column was equilibrated with buffer containing 20 mM Tris pH 7.5, 0.1 M NaCl, 0.1 M EDTA, and each antagonist in conditioned medium was applied individually to the anti-HA affinity matrix. Excess unbound antagonist proteins were washed with 20 volume of washing buffer (20 mM Tris pH 7.5, 0.1 M NaCl, 0.1 M EDTA and 0.05% Tween 20). The bound NRG antagonists were eluted with 0.1 M glycine (pH 2). The purified recombinant protein was then quantified using a BioRad Protein Assay kit (Bio-Rad, Hercules, Calif.) 8. Silver stain: Both the conditioned media and the purified NRG antagonists were resolved on 7.5% reducing SDS-polyacrylamide gels. The gel was fixed with 30% ethanol and 10% acetic acid for 30 min. 10% ethanol and ultrapure water were used subsequently to wash the gel before staining with SilverSNAP stain solution with enhancer for 30 min. The gel was then developed using SilverSNAP developer solution with enhancer. 5% acetic acid was used to stop the reaction when the desired band intensity was reached. The gel was dried on filter paper using a vacuum gel dyer. 9. […] Positive control L6 cells were treated with 50 pM NRG alone. L6 cell lysates were prepared and run on 5% SDS-PAGE gel. Western blots of erbB receptor phosphorylation were performed using 4G10 antibody. 10. Western blot: Western blots were performed on both conditioned NRG antagonist media and the antagonist-treated L6 cells. The antagonist proteins and the L6 cells were solubilized in SDS sample buffer and boiled for 5 min as described above (see also Li et al., supra). The NRG antagonists run on 7.5% SDS-PAGE gel were detected by anti-HA mAb HA.11. Phosphotyrosine mAb 4G10 was used to detect phosphorylated erbB receptor (p185) in L6 cell western blot analysis following resolution on overrun 5% reducing SDS-polyacrylamide gels. […]

[2] = Heparin column binding; details: for binding to heparin column: conditioned media, anti-HA western blot of flow through and elution; for NaCl concentration needed to elute from heparin column: elution with increasing NaCl (0.25-1 M)
Experimental: as §1

Row | Molecule | effect on NRG-induced p185 erbB receptor phosphorylation [1] | binding to heparin column [2] | NaCl concentration needed to elute from heparin column [2] | sustained blockade of neuregulin signaling (p185 phosphorylation) ([1]; preincubated with L6 muscle cells one hour, thoroughly washed before adding recombinant neuregulin)
1 | B1 | dramatically reduced erbB receptor activation | bound the heparin column | 0.4 to 0.5 M | 
2 | B2 | dramatically reduced erbB receptor activation | bound the heparin column | > 1 M and 1 M | 
3 | B3 | little effect | did not |  | 
4 | B4 |  |  |  | no sustained effects
5 | B5 | little effect | did not |  | 
